In patent US20220281951A1 (ACCELERON PHARMA, published 2022):
Where two headings read alike, the source gives them in different places.

How the values were obtained:
GDF-11 [1] = target: T1, GDF-11 (UniProt O95390 299-407); test: cell-based or functional assay
T1 sequence (looked up): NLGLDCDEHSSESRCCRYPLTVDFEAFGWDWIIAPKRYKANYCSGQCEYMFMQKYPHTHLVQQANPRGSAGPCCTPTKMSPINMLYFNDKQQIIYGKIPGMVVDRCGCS

Activin A [2] = target: T2, Activin A (UniProt P08476 311-426); test: cell-based or functional assay
T2 sequence (looked up): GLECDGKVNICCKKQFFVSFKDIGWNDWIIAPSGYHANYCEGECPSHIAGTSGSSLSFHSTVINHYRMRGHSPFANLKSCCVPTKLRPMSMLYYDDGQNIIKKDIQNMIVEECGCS

GDF-11 [3] = target: T1, GDF-11; test: cell-based or functional assay; remark: listed apart in the source
Activin A [4] = target: T2, Activin A; test: cell-based or functional assay; remark: listed apart in the source
GDF8 = target: T3, GDF8 (UniProt O14793 267-375); test: BiaCore SPR; ActRIIB-Fc captured by anti-hFc antibody, ligand injected
T3 construct: also called myostatin; Growth and Differentiation Factor-8
T3 sequence (looked up): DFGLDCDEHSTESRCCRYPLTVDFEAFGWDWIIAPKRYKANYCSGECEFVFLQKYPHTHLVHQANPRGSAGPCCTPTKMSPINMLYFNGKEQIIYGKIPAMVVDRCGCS
Description: The ActRIIB-Fc variants or wild-type protein were captured onto the system using an anti-hFc antibody. Ligands were injected and flowed over the captured receptor proteins.

B1: ActRIIb-hFc (R64, 20-131) (Fc fusion)
chain: GRGEAETRECIYYNANWELERTNQSGLERCEGEQDKRLHCYASWRNSSGTIELVKKGCWLDDFNCYDRQECVATEENPQVYFCCCEGNFCNERFTHLPEAGGPEVTYEPPPTGGGTHTCPPCPAPELLGGPSVFLFPPKPKDTLMISRTPEVTCVVVDVSHEDPEVKFNWYVDGVEVHNAKTKPREEQYNSTYRVVSVLTVLHQDWLNGKEYKCKVSNKALPVPIEKTISKAKGQPREPQVYTLPPSREEMTKNQVSLTCLVKGFYPSDIAVEWESNGQPENNYKTTPPVLDSDGSFFLYSKLTVDKSRWQQGNVFSCSVMHEALHNHYTQKSLSLSPGK
B1 was tested, and the “IC50 (ng/mL), A-204 reporter gene assay, conditioned media” value (shortened to “IC50 (ng/mL), A-204 reporter gene assay”) (GDF-11 [1]) was 120 ng/mL, the “IC50 (ng/mL), A-204 reporter gene assay” value (Activin A [2]) was 44 ng/mL and the “IC50 (ng/mL), A-204 reporter gene assay” value (GDF-11 [3]) was 183 ng/mL. The “IC50 (ng/mL), A-204 reporter gene assay” value (Activin A [4]) was 201 ng/mL.

B2: ActRIIb-hFc (R64, 23-131) (Fc fusion)
chain: EAETRECIYYNANWELERTNQSGLERCEGEQDKRLHCYASWRNSSGTIELVKKGCWLDDFNCYDRQECVATEENPQVYFCCCEGNFCNERFTHLPEAGGPEVTYEPPPTGGGTHTCPPCPAPELLGGPSVFLFPPKPKDTLMISRTPEVTCVVVDVSHEDPEVKFNWYVDGVEVHNAKTKPREEQYNSTYRVVSVLTVLHQDWLNGKEYKCKVSNKALPVPIEKTISKAKGQPREPQVYTLPPSREEMTKNQVSLTCLVKGFYPSDIAVEWESNGQPENNYKTTPPVLDSDGSFFLYSKLTVDKSRWQQGNVFSCSVMHEALHNHYTQKSLSLSPGK
With B2 the “IC50 (ng/mL), A-204 reporter gene assay” value (GDF-11 [3]) was 60 ng/mL and the “IC50 (ng/mL), A-204 reporter gene assay” value (Activin A [4]) was 43 ng/mL.

B3: ActRIIb-hFc (R64, 22-131) (Fc fusion)
chain: GEAETRECIYYNANWELERTNQSGLERCEGEQDKRLHCYASWRNSSGTIELVKKGCWLDDFNCYDRQECVATEENPQVYFCCCEGNFCNERFTHLPEAGGPEVTYEPPPTGGGTHTCPPCPAPELLGGPSVFLFPPKPKDTLMISRTPEVTCVVVDVSHEDPEVKFNWYVDGVEVHNAKTKPREEQYNSTYRVVSVLTVLHQDWLNGKEYKCKVSNKALPVPIEKTISKAKGQPREPQVYTLPPSREEMTKNQVSLTCLVKGFYPSDIAVEWESNGQPENNYKTTPPVLDSDGSFFLYSKLTVDKSRWQQGNVFSCSVMHEALHNHYTQKSLSLSPGK
For B3, the “IC50 (ng/mL), A-204 reporter gene assay” value (GDF-11 [3]) was 71 ng/mL and the “IC50 (ng/mL), A-204 reporter gene assay” value (Activin A [4]) was 100 ng/mL.

B4: ActRIIb-hFc (R64, 24-131) (Fc fusion)
chain: AETRECIYYNANWELERTNQSGLERCEGEQDKRLHCYASWRNSSGTIELVKKGCWLDDFNCYDRQECVATEENPQVYFCCCEGNFCNERFTHLPEAGGPEVTYEPPPTGGGTHTCPPCPAPELLGGPSVFLFPPKPKDTLMISRTPEVTCVVVDVSHEDPEVKFNWYVDGVEVHNAKTKPREEQYNSTYRVVSVLTVLHQDWLNGKEYKCKVSNKALPVPIEKTISKAKGQPREPQVYTLPPSREEMTKNQVSLTCLVKGFYPSDIAVEWESNGQPENNYKTTPPVLDSDGSFFLYSKLTVDKSRWQQGNVFSCSVMHEALHNHYTQKSLSLSPGK
With B4 the “IC50 (ng/mL), A-204 reporter gene assay” value (GDF-11 [3]) was 69 ng/mL and the “IC50 (ng/mL), A-204 reporter gene assay” value (Activin A [4]) was 105 ng/mL.

B5: ActRIIb-hFc (R64, 21-131) (Fc fusion)
chain: RGEAETRECIYYNANWELERTNQSGLERCEGEQDKRLHCYASWRNSSGTIELVKKGCWLDDFNCYDRQECVATEENPQVYFCCCEGNFCNERFTHLPEAGGPEVTYEPPPTGGGTHTCPPCPAPELLGGPSVFLFPPKPKDTLMISRTPEVTCVVVDVSHEDPEVKFNWYVDGVEVHNAKTKPREEQYNSTYRVVSVLTVLHQDWLNGKEYKCKVSNKALPVPIEKTISKAKGQPREPQVYTLPPSREEMTKNQVSLTCLVKGFYPSDIAVEWESNGQPENNYKTTPPVLDSDGSFFLYSKLTVDKSRWQQGNVFSCSVMHEALHNHYTQKSLSLSPGK
With B5 the “IC50 (ng/mL), A-204 reporter gene assay” value (GDF-11 [3]) was 121 ng/mL and the “IC50 (ng/mL), A-204 reporter gene assay” value (Activin A [4]) was 325 ng/mL.

B6: ActRIIb-hFc (R64, 20-134) (Fc fusion)
chain: GRGEAETRECIYYNANWELERTNQSGLERCEGEQDKRLHCYASWRNSSGTIELVKKGCWLDDFNCYDRQECVATEENPQVYFCCCEGNFCNERFTHLPEAGGPEVTYEPPPTAPTGGGTHTCPPCPAPELLGGPSVFLFPPKPKDTLMISRTPEVTCVVVDVSHEDPEVKFNWYVDGVEVHNAKTKPREEQYNSTYRVVSVLTVLHQDWLNGKEYKCKVSNKALPVPIEKTISKAKGQPREPQVYTLPPSREEMTKNQVSLTCLVKGFYPSDIAVEWESNGQPENNYKTTPPVLDSDGSFFLYSKLTVDKSRWQQGNVFSCSVMHEALHNHYTQKSLSLSPGK
B6 gave a kon (GDF8) of 369000 M⁻¹ s⁻¹.

B7: ActRIIb-hFc (R64, 20-132) (Fc fusion)
chain: GRGEAETRECIYYNANWELERTNQSGLERCEGEQDKRLHCYASWRNSSGTIELVKKGCWLDDFNCYDRQECVATEENPQVYFCCCEGNFCNERFTHLPEAGGPEVTYEPPPTAGGGTHTCPPCPAPELLGGPSVFLFPPKPKDTLMISRTPEVTCVVVDVSHEDPEVKFNWYVDGVEVHNAKTKPREEQYNSTYRVVSVLTVLHQDWLNGKEYKCKVSNKALPVPIEKTISKAKGQPREPQVYTLPPSREEMTKNQVSLTCLVKGFYPSDIAVEWESNGQPENNYKTTPPVLDSDGSFFLYSKLTVDKSRWQQGNVFSCSVMHEALHNHYTQKSLSLSPGK
For B7, the “IC50 (ng/mL), A-204 reporter gene assay” value (GDF-11 [1]) was 87 ng/mL and the “IC50 (ng/mL), A-204 reporter gene assay” value (Activin A [2]) was 32 ng/mL.

B8: ActRIIb-hFc (R64, 20-128) (Fc fusion)
chain: GRGEAETRECIYYNANWELERTNQSGLERCEGEQDKRLHCYASWRNSSGTIELVKKGCWLDDFNCYDRQECVATEENPQVYFCCCEGNFCNERFTHLPEAGGPEVTYEPGGGTHTCPPCPAPELLGGPSVFLFPPKPKDTLMISRTPEVTCVVVDVSHEDPEVKFNWYVDGVEVHNAKTKPREEQYNSTYRVVSVLTVLHQDWLNGKEYKCKVSNKALPVPIEKTISKAKGQPREPQVYTLPPSREEMTKNQVSLTCLVKGFYPSDIAVEWESNGQPENNYKTTPPVLDSDGSFFLYSKLTVDKSRWQQGNVFSCSVMHEALHNHYTQKSLSLSPGK
In the case of B8, the “IC50 (ng/mL), A-204 reporter gene assay” value (GDF-11 [1]) is reported as 130 ng/mL and the “IC50 (ng/mL), A-204 reporter gene assay” value (Activin A [2]) is reported as 158 ng/mL.
